According to patent US8975044B2, “Polynucleotides encoding for frizzled-binding agents and uses thereof” (OncoMed Pharmaceuticals, Inc., priority 2008, dated 2015):
Residue numbers refer to the chain shown, from its start.

T1: FZD8 (Homo sapiens, UniProt Q9H461, D83Q/P82S)
T1 construct: N-terminus of the Fri domain of FZD8 in turn fused to the transmembrane domain and intracellular domain of CD4 protein; expressed in transfected cells; host or cells: HEK293
T1 sequence (Q9H461 28-158 P82S/D83Q): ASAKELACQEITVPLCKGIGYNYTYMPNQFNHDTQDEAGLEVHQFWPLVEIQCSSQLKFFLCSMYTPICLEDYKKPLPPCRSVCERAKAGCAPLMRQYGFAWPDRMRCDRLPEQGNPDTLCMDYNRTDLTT

T2: FZD8 (Homo sapiens, UniProt Q9H461, S109Q)
T2 construct: N-terminus of the Fri domain of FZD8 in turn fused to the transmembrane domain and intracellular domain of CD4 protein; expressed in transfected cells; host or cells: HEK293
T2 sequence (Q9H461 28-158 S109Q): T1 sequence (Q9H461 28-158 P82S/D83Q) with S55P, Q56D, S82Q

B1: 18R5: human anti-FZD antibody; VH SEQ ID NO:10 (as 18R8), VL SEQ ID NO:14; binds FZD1, 2, 5, 7, 8 (antibody, V domains shown)
VH: EVQLVESGGGLVQPGGSLRLSCAASGFTFSHYTLSWVRQAPGKGLEWVSVISGDGSYTYYADSVKGRFTISSDNSKNTLYLQMNSLRAEDTAVYYCARNFIKYVFANWGQGTLVTVSS
VL: DIELTQPPSVSVAPGQTARISCSGDNIGSFYVHWYQQKPGQAPVLVIYDKSNRPSGIPERFSGSNSGNTATLTISGTQAEDEADYYCQSYANTLSLVFGGGTKLTVLG
modifications: 18R5/18R8 heavy chain variable region (VH); 18R5 light chain variable region (VL)
B2: 18R8: human anti-FZD antibody from phage display; VH SEQ ID NO:10, VL SEQ ID NO:12; binds FZD1, 2, 5, 7, 8 (antibody, V domains shown)
VH: B1 VH
VL: DIELTQPPSVSVAPGQTARISCSGDKLGKKYASWYQQKPGQAPVLVIYEKDNRPSGIPERFSGSNSGNTATLTISGTQAEDEADYYCSSFAGNSLEVFGGGTKLTVLG
modifications: 18R5/18R8 heavy chain variable region (VH); 18R8 light chain variable region (VL)

Experiments:
[1] = tested on: OMP-LU24 human lung tumors; test: OMP-LU24 lung tumor xenograft growth; assay type: in vivo, NOD-SCID mice; conditions: antibody 10 mg/kg IP once per week, Taxol 15 mg/kg IP once per week
Experimental: 50,000 OMP-LU24 human lung tumor cells were injected subcutaneously in NOD-SCID mice. Tumors were allowed to grow for 27 days until they reached an average volume of 143 mm^3. The animals were randomized into 4 groups (n=9 per group) and treated with either control antibody (“Control Ab”), anti-FZD 18R5 (“18R5”), Taxol® (“Taxol”) or the combination of 18R5 plus Taxol® (“18R5+Taxol”). Antibodies were dosed at 10 mg/kg intraperitoneal (IP), once per week and Taxol® was dosed at 15 mg/kg, IP, once per week.

OMP-C28 tumors = test: Flow cytometry of ESA and CD44 on cells of treated OMP-C28 tumors; assay type: in vivo, NOD/SCID mice; conditions: tumors harvested day 48; control antibody 64%
Experimental: Control and treated tumors from the OMP-C28 xenograft study described above (Example 7) were harvested at the end of the study (day 48). The tumors were processed and dissociated into single cells. Tumor cells were then incubated with biotinylated mouse antibodies (α-mouse CD45-biotin 1:200 dilution and rat α-mouse H2 Kd-biotin 1:100 dilution, BioLegend, San Diego, Calif.) on ice for 30 min followed by addition of streptavidin-labeled magnetic beads (Invitrogen, Carlsbad, Calif.) to remove mouse cells with the aid of a magnet.
For analysis of cell surface markers, the single tumor cell suspension was stained with anti-ESA (Biomeda) and anti-CD44 (BD Biosciences) antibodies which were directly conjugated to fluorochromes. Dead cells were excluded by using the viability dye DAPI. Flow cytometry was performed using a FACS Aria (Becton Dickinson). Side scatter and forward scatter profiles were used to eliminate cell clumps.

[2] = tested on: smooth muscle actin (SMA); test: Smooth Muscle Actin alpha immunofluorescence on treated OMP-PN4 tumors; assay type: in vivo, NOD/SCID mice; conditions: 10 mg/kg once a week for 6 weeks; vs control mAb
Experimental: As described in Example 7 above, OMP-PN4 tumor-bearing NOD/SCID mice were treated with control Ab (LZ-1), 18R5, gemcitabine, or the combination of 18R5 and gemcitabine once a week for 6 weeks. The antibodies were administered at a concentration of 10 mg/kg. After they were harvested, the tumors from that experiment were analyzed for the expression of Wnt target genes at both the RNA and protein levels, using microarray and IHC, respectively.
In preparation for Smooth Muscle Actin alpha (SMAa) immunofluorescence, tumor tissue was frozen using OCT. 4 micron sections were obtained and stored frozen at −80° C. For SMAa staining, tissue was fixed using chilled acetone at −20° C. for 15 minutes and then allowed to dry and come to room temperature and then marked using a hydrophobic PAP pen. Slides were then washed using phosphate buffered saline (PBS). Tissue was blocked using normal horse serum R.T.U. (Vector Labs) for 2 hours at room temperature. Primary antibody staining was performed with 1:10,000 dilution of FITC-conjugated Smooth muscle actin alpha antibody (cline 1A4, #F3777, SIGMA) for 1 hour. Sections were washed 3 times using PBS containing 0.1% triton X-100. Slides were then air-dried and then mounted using Hard set mounting medium containing DAPI (vectashied H-500).

Wnt signaling = test: 8xTCF luciferase reporter assay in STF293 cells with Wnt-overexpressing HEK293 cells; assay type: cell-based, human; conditions: 20 μg/ml; Wnt1, Wnt2, Wnt3, Wnt7A, Wnt7B, Wnt10B, Wnt3A inhibited; 18 hours
Experimental: In further experiments, the ability of the 18R8 antibody to antagonize signaling by different Wnt ligands was determined. HEK 293 cells were transfected with Wntl, Wnt2, Wnt2b2, Wnt3, Wnt3a, Wnt7a, Wnt7b, Wnt8a, Wnt9b, and Wnt10b for forty eight hours by Fugene 6 (Roche). Wnt3A conditioned medium (“WNT3ACM”) was used as a positive control of activation. STF293 cells, were cultured in DMEM supplemented with antibiotics and 10% FCS and treated with 20 μg/ml 18R8 antibody or no antibody. The Wnt-overexpressing HEK293 cells were then added. Eighteen hours following treatment, luciferase levels were measured using a dual luciferase assay kit.

FZD8 [3] = molecular target: T1, FZD8; test: Epitope mapping by FACS on FZD8 Fri domain variants on HEK293 cells; assay type: binding; conditions: amino acid residues 82-83 mutated from PD to SQ
Experimental: (§1) To identify the FZD epitope recognized by the 18R8 IgG antibody, epitope mapping was performed. Flow cytometry analysis of cell surface expressed FZD was utilized to measure antibody binding. Mammalian expression plasmid vectors comprising a CMV promoter upstream of polynucleotides that encode an N-terminal signal sequence FLAG epitope tag fused to the N-terminus of the Fri domain of FZD8 in turn fused to the transmembrane domain and intracellular domain of CD4 protein were generated by standard recombinant technology. This expression construct allows expression of the FZD8 Fri domain on the cell surface, as well as expression of a FLAG epitope tag to monitor expression. Site-direct mutagenesis was then used to modify selected amino acids within the extracellular domain of FZD. HEK293 cells were co-transfected with expression vectors encoding the FZD and the transfection marker GFP. Forty-eight hours post-transfection, cells were collected in suspension and incubated on ice with anti-FZD antibody or control IgG to detect background antibody binding. The cells were washed and primary antibodies detected with anti-antibody secondary antibodies conjugated to a fluorescent chromophore. Labeled cells were then analyzed by flow cytometry to measure the binding of anti-FZD antibody to cell surface FZD.
(§2) Epitope mapping for the anti-FZD antibody 44R24 was performed in a manner similar to that described above in Example 5 for the antibodies 18R8 and 18R5. The ability of 44R24 to bind to a similar epitope as 18R8 was assessed by flow cytometry using a series of amino acid variants of FZD8 previously shown to disrupt binding of 18R8 (see Example 5 and FIGS. 6 and 7).

FZD8 [4] = molecular target: T2, FZD8; test: as above; assay type: binding; conditions: amino acid 109S changed to 109Q
Experimental: as §1, §2

| Molecule | xenograft tumor growth [1] | bulk tumor population expressing both ESA and CD44 at high levels (double positive) (OMP-C28 tumors) | Smooth Muscle Actin alpha (SMAa) amount [2] | inhibition of signaling by different Wnt ligands (Wnt signaling) | binding to FZD8 variant (FZD8 [3]) | binding to FZD8 variant (FZD8 [4]) |
| --- | --- | --- | --- | --- | --- | --- |
| B1 | inhibits OMP-LU24 xenograft tumor growth | 40% | Reduced amounts of SMAa |  |  |  |
| B2 |  |  |  | inhibit signaling of a variety of Wnts | largely unaffected | no appreciable effect |
